Measurements published in patent US20070207498A1, “Design and construction of dimeric concanavalin a mutants” (LifeScan, Inc., priority 2005, published 2007).
Each block holds one molecule with its values, some of them ahead of it.

Tests used:
[1] = biological target: T1, Concanavalin A (ConA) dimer mutant pET32 (D58N, N118C, H121C, E192Q), SEQ ID NOS: 12 and 24 (Canavalia ensiformis, UniProt P02866, D221N/E103Q/H32C/N281C); test: FRET response of sensors, Cy3.5-labeled pET32 dimer mutant ConA (donor) with Alexa647-labeled superoxide dismutase (acceptor); assay type: binding; conditions: 500 mg/dL glucose; 6 μM to 24 μM ratio, Alexa647-SOD, FIG. 13
T1 construct: made in house
Description: (§1) Functional properties of recombinant ConA have been characterized by Fluorescence Resonance Energy Transfer (FRET) using a PTI QuantaMaster fluorimeter.

[2] = biological target: T1, Concanavalin A (ConA) dimer mutant pET32 (D58N, N118C, H121C, E192Q), SEQ ID NOS: 12 and 24; test: FRET response of sensors, Cy3.5-labeled pET32 dimer mutant ConA (donor) with Cy5.5-labeled superoxide dismutase (acceptor); assay type: binding; conditions: 500 mg/dL glucose; Cy5.5-SOD, FIG. 14
Description: as §1
Sensors made with Cy3.5-labeled pET32 dimer mutant ConA and Cy5.5-labeled superoxide dismutase (SOD).

[3] = biological target: dye and sugar-labeled therapeutic human serum albumin (tHSA) (human) (UniProt P02768); test: FRET competition assay (FIG. 12), 4-parameter logistic fit; unlabeled tetramer against labeled tetrameric ConA on HSA
[4] = biological target: dye and sugar-labeled therapeutic human serum albumin (tHSA) (human) (UniProt P02768); test: FRET competition assay, 384-well plate: unlabeled tetramer displaces labeled tetrameric ConA from HSA; Ki estimated from EC50 and the concentration of labeled tetramer
[5] = biological target: T2, dye and sugar-labeled therapeutic human serum albumin (tHSA) (human, UniProt P02768 25-609, sugar-labeled (glycoconjugate); labeled with the acceptor Alexa 647; modified residues not stated); test: FRET competition assay, 384-well plate: unlabeled competitor displaces labeled tetrameric ConA from HSA; Ki estimated from EC50 and the concentration of labeled tetramer
T2 construct: also called Alexa-HSA; Alexa-labeled Human Serum Albumin
Protocol: Mutant ConA was characterized by FRET. […] The EC₅₀ was calculated using a 4-parameter logistic equation.

Molecule: OC[C@H]1OC(O)[C@H](O)[C@@H](O)[C@@H]1O (some centres unmarked) [glucose]
FRET response to the addition of glucose [1]: approximately 262% | FRET response to the addition of glucose [2]: ~266%

EC50 [3]: 110 nM | Ki [4]: 9.1 nM
Molecule: ConA tetramer (tetrameric ConA used as labeled partner and as unlabeled competitor in the competition binding assay) (from UniProt P02866 30-281)

Ki [5]: ~21 nM
B1: pET32 quad mutant ConA (D58N, N118C, H121C, E192Q), stable dimer (other)
chain: ADTIVAVELDTYPNTDIGDPSYPHIGIDIKSVRSKKTAKWNMQNGKVGTAHIIYNSVNKRLSAVVSYPNADSATVSYDVDLDNVLPEWVRVGLSASTGLYKETNTILSWSFTSKLKSCSTCETNALHFMFNQFSKDQKDLILQGDATTGTDGNLELTRVSSNGSPQGSSVGRALFYAPVHIWESSAVVASFQATFTFLIKSPDSHPADGIAFFISNIDSSIPSGSTGRLLGLFPDAN
modifications: unlabeled as competitor in the FIG. 12 assay; labeled with Cy3.5b / Cy3.5 (donor dye) in the FRET and sensor experiments, labeled residues not stated
notes: also called dimer mutant ConA; pET32 dimer ConA mutant
